# Tests used:
# [1] = biological target: native host protein; test: method not stated
# [2] = biological target: native host protein; test: method not stated; reference is wild type PmSLP-1 (SEQ.ID NO: 2)
Substance,Kd [1],factor by which Kd exceeds that of the native non-modified PmSLP [2]
modified PmSLP-1 with E240A mutation (SEQ.ID NO: 67),< 2000 nM,> 500 fold
modified PmSLP-1 with V214D mutation (SEQ.ID NO: 65),< 2000 nM,> 500 fold
wild type PmSLP-1 protein of P. multocida (SEQ.ID NO: 2),30 nM,–

# Source: patent US20250262292A1
